How the values were obtained:
Experiment in all cases: competitive phage ELISA
[1] = target: T1, IGF-I P63A (G1S-A70V background) displayed on phage (human; bacteriophage M13)
T1 construct: monovalent M13 phage display; not shown: M13 gene III protein fragment (residues 249-406), the phage display carrier, and its junction to IGF-I
T1 chain: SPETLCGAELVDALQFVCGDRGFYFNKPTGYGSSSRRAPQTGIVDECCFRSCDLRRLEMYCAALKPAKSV
Procedure: (§1) Phage particles were harvested and resuspended in PBS buffer as described in Lowman, H. B., “Phage Display of Peptide Libraries on Protein Scaffolds,” in Cabilly, S. (ed.), Combinatorial Peptide Library Protocols (Humana Press Inc.: Totowa, N.J., 1998), pp. 249-264. Then phage concentrations were normalized to yield a maximal ELISA signal of 0.2-0.4 for each mutant (Lowman, in Cabilly, S. (ed.), supra). Threefold serial dilutions of soluble competitor were prepared on non-absorbent microtiter plates (Nunc, F, 96 wells) with binding buffer (0.5% TWEEN™ 20/PBS) containing phage at the previously-determined concentrations. […] After blocking, the plates containing immobilized target were washed with 0.05% TWEEN™/PBS buffer and subsequently incubated with 80 μl/well of the premixed phage-competitor solutions for 1 hour at room temperature. After washing, bound phage was detected with 80 μl/well of a solution containing a primary rabbit anti-phage polyclonal antibody and a secondary goat anti-rabbit monoclonal antibody-horseradish peroxidase conjugate in 0.5% TWEEN 20™/PBS. o-Phenylenediamine (Sigma) and tetramethylbenzidine (Kirkegaard and Perry) were used as chromogenic substrates, resulting in product detection at 492 and 450 nm, respectively. IC₅₀ values were determined by fitting the binding data to a generic saturation curve (Lowman, in Cabilly, S. (ed.), supra). […] Numbers in Table I represent mean +standard deviation of individually assessed IC₅₀ values.
(§2) At least two different clones of every mutant were tested.

[2] = target: T2, IGF-I D45A (G1S-A70V background) displayed on phage (human; bacteriophage M13)
T2 construct: monovalent M13 phage display
T2 chain: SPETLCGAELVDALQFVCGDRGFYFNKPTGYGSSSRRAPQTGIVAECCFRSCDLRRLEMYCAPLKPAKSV
Procedure: as §1, §2

[3] = target: T3, IGF-I R56A (G1S-A70V background) displayed on phage (human; bacteriophage M13)
T3 construct: monovalent M13 phage display
T3 chain: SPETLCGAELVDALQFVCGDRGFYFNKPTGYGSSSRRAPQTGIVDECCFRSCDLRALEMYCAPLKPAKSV
Procedure: as §1, §2

[4] = target: T4, IGF-I E9A (G1S-A70V background) displayed on phage (human; bacteriophage M13)
T4 construct: monovalent M13 phage display
T4 chain: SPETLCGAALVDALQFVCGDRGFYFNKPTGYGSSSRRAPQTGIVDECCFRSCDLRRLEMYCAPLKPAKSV
Procedure: as §1, §2

[5] = target: T5, IGF-I R37A (G1S-A70V background) displayed on phage (human; bacteriophage M13)
T5 construct: monovalent M13 phage display
T5 chain: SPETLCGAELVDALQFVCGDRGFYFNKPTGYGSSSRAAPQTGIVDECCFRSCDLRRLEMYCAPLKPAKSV
Procedure: as §1, §2

[6] = target: T6, IGF-I G42A (G1S-A70V background) displayed on phage (human; bacteriophage M13)
T6 construct: monovalent M13 phage display
T6 chain: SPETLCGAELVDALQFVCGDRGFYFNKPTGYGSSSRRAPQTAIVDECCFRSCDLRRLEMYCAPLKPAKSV
Procedure: as §1, §2

[7] = target: T7, IGF-I P2A (G1S-A70V background) displayed on phage (human; bacteriophage M13)
T7 construct: range 249-406; monovalent M13 phage display
Procedure: as §1, §2

[8] = target: T8, IGF-I V44A (G1S-A70V background) displayed on phage (human; bacteriophage M13)
T8 construct: monovalent M13 phage display
T8 chain: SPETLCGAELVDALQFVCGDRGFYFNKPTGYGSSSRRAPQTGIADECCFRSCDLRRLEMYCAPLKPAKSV
Procedure: as §1, §2

[9] = target: T9, IGF-I S69A (G1S-A70V background) displayed on phage (human; bacteriophage M13, UniProt P69168 267-424)
T9 chain: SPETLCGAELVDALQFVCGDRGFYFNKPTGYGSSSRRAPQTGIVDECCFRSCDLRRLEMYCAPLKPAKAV
Procedure: as §1, §2

[10] = target: T10, IGF-I G1S-A70V displayed on phage (human; bacteriophage M13)
T10 construct: monovalent M13 phage display; template of the alanine scan; also called G1S-A70V IGF-I; wild-type-like IGF-I variant; not shown: M13 gene III fragment (residues 249-406, display partner) and the junction to it
Procedure: as §1, §2

[11] = target: T11, wild-type IGF-I displayed on phage (human; bacteriophage M13, UniProt P69168 267-424)
T11 construct: range 249-406; monovalent M13 phage display; also called IGF-I WT; double-mutation restoring wild-type IGF-I
Procedure: as §1, §2

[12] = target: T12, IGF-I S35A (G1S-A70V background) displayed on phage (human; bacteriophage M13)
T12 construct: monovalent M13 phage display
T12 chain: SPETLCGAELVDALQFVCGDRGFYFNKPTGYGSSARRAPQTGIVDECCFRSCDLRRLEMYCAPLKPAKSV
Procedure: as §1, §2

[13] = target: T13, IGF-I F25A (G1S-A70V background) displayed on phage (human; bacteriophage M13, not fully specified; Displayed monovalently on M13 phage as a C-terminal fusion to the gene III fragment, which is left out of the letters.)
T13 construct: monovalent M13 phage display; not shown: Display carrier: M13 gene III fragment (residues 249-406) and its junction
T13 chain: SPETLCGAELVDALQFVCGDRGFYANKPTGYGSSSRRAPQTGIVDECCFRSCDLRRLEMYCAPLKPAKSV
Procedure: as §1, §2

[14] = target: T14, IGF-I K27A (G1S-A70V background) displayed on phage (human; bacteriophage M13, not fully specified; Displayed monovalently on M13 phage as a C-terminal fusion to the gene III fragment, which is left out of the letters.)
T14 construct: monovalent M13 phage display; not shown: Display carrier: M13 gene III fragment (residues 249-406) and its junction
T14 chain: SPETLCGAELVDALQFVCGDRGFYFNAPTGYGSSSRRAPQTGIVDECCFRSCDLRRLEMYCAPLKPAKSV
Procedure: as §1, §2

[15] = target: T15, IGF-I G32A (G1S-A70V background) displayed on phage (human; bacteriophage M13)
T15 construct: monovalent M13 phage display; not shown: M13 gene III fragment (residues 249-406, display partner) and the junction to it
T15 chain: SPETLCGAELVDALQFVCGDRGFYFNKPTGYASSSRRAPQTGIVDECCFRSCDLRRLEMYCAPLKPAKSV
Procedure: as §1, §2

B1: human IGFBP-1 (other, UniProt P08833 26-259, looked up)
chain: APWQCAPCSAEKLALCPPVSASCSEVTRSAGCGCCPMCALPLGAACGVATARCARGLSCRALPGEQQPLHALTRGQGACVQESDASAPHAAEAGSPESPESTEITEEELLDNFHLMAPSEEDHSILWDAISTYDGSKALHVTNIKKWKEPCRIELYRVVESLAKAQETSGEEISKFYLPNCNKNGFYHSRQCETSMDGEAGLCWCVYPWNGKRIPGSPEIRGDPNCQIYFNVQN
notes: secreted recombinant protein purified from conditioned medium
B1 showed an IC50 [1] of over 1000 nM, an IC50 [2] of 4.7 nM and an IC50 [3] of 13.1 nM. For the same binder, the IC50 [4] was 8.6 nM, the IC50 [5] was 12.3 nM and the IC50 [6] was 15.7 nM. For the same binder, the IC50 [7] was 11 nM, the IC50 [8] was 18.8 nM and the IC50 [9] was 12.8 nM. The IC50 [10] was 8.2 nM, the IC50 [11] was 8.4 nM and the IC50 [12] was 11.7 nM. It also gave an IC50 [13] of 181 nM, an IC50 [14] of 12.8 nM and an IC50 [15] of 10.9 nM.

Reference: patent publication US20020160955A1 (published 2002)
